Target: T1, thermolysin-cleaved EBOV GP on Jurkat-GP cells (cleaved GP) (Zaire ebolavirus, Makona (GP1 core …, strain))
T1 chain 1: not shown
T1 chain 2: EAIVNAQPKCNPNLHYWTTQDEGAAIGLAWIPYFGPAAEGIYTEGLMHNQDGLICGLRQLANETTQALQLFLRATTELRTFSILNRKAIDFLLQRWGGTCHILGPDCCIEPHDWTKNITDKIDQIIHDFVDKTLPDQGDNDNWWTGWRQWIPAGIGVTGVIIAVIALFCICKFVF

Binder	binding result
15.0.c792 (antibody, V domains shown) VH: EVQLVESGGGLVQPGGSLRLSCAASGFTFSSYSMNWVRQAPGKGLEWVSYISSSSSTIYYADSVKGRFTISRDNAKNSLYLQMNSLRAEDTAVYYCARESPTYYDFWSGYSDYWGQGTLVTVSS VL: NFMLTQPHSVSESPGKTVTISCTRSSGSIASNYVQWYQQRPGSSPTTVIYEDNQRPSGVPDRFSGSIDSSSNSASLTISGLKTEDEADYYCQSYDSSNRVFGGGTKLTVL	binds
15.0.c779 (antibody, V domains shown) VH: EVQMVESGGGLVKPGGSLRLSCAASGFIFSNAWMSWVRQAPGKGLEWVGRIKGKTDGGTTDYAAPVKGRVTISRDDSKNTLFLQMNSLKTEDTAVYFCTADVLPAATRGVYYYYYYMDVWGKGTTVTVSS VL: QSALTQPASVSGSPGQSITISCTGTSSDVGGYNYVSWYQQHPGKAPKLMIYDVSKRPSGVSNRFSGSKSGNTASLTISGLQAEDEADYYCCSYTGRSTVVFGGGTTLTVL	binds
15.0.c780 (antibody, V domains shown) VH: EVQLVESGGGLVKPGGSLRLSCAASGFTFSNAWMSWVRQAPGKGLEWVGRIKGKTDGGTTDYAAPVRGRFTISRDDSKNMLYLQMNSLKTEDTAIYYCTADVIPAATRGVYYYYYYMDVWGEGTTVAVSS VL: QSALTQPASVSGSPGQSITISCTGTSSDVGGYNYVSWYQQHPGKAPKLMIYDVSKRPSGLSNRFSGSKSGNTASLTISGLQAEDEADYYCCSYARSSTVVFGGGTKVTVL	binds
15.0.c800 (antibody, V domains shown) VH: EDQLLESGGGLVQPGGSLRLSCAVSGFTFSGYDLSWVRQAPGKGLEWVSIFSGSGGRKYYADSVKGRFTLSIDNSKNTLYLQMNSLRAEDTAVYYCAGDSSGYNNERMYYTYYMDVWGKGTTVTVSS VL: DIQMTQSPSSVSASVGDRVIITCRASQGISSWLAWYQQKPGKAPKLLIYAASSLQSGVPSRFSGSGSGTDFTLTISSLQPEDFATYYCQQANSFPLSFGGGTKVEIK	binds
15.0.c830 (antibody, V domains shown) VH: EEQLLESGGGLVQPGGSLRLSCTVSGFTFSGYDMSWVRQAPGKGLEWVSLLSASGGGKYYADSVRGRFTISRDNSKNTMYLEMNSLRADDTAIYYCATDSSGYNYERLYYTYYMDVWGRGTTVSVSS VL: DIQMTQSPSSVSASVGDRVTITCRASQGISVWLAWYQQKPGKAPKLLIHAASSLQSGVPSRFSGSGSGTDFSLTISSLQPEDFATYYCQQANSFPLTFGGGTKVEIK	binds
5.6.c4172 (antibody, V domains shown) VH: QVQLQESGPGLVKPSGTLSLTCAVSGGSISSHYWWSWVRQSPGKGLEWLGEIYQIGSTNYNPSLKSRVSMSVDESKNQFSLSLTSVTAADTAVYYCARDQGHWNPGKGAFDIWGQGALVTVSS VL: QSVLTQPPSVSAAPGQRVTISCSGSNSNIGKNFVSWYQQFPGTAPKLLIYDNDKRPSGIPDRFSGSKSGTSATLGITGLQTGDEADYFCATWDTTLSAWVFGGGTKVTVL	binds
15.0.c846 (antibody, V domains shown) VH: EVQLVESGGGLVQPGGSLRLSCAASGFTFSSYWMSWVRQAPGKGLEWVANIKQDGSEKYYVDSVKGRFTISRDNAKNSLYLQMNSLRAEDTAVYYCARTRDSSSSFYYYYYMDVWGKGTTVTVSS VL: not shown	binds
15.0.c819 (antibody, V domains shown) VH: QVQLVESGGGVVQPGRSLRLSCAASGFTFSSYAMHWVRQAPGKGLEWVAVISYDGSNKYYADSVKGRFTISRDNSKNTLYLQMNSLRAEDTAVYYCARDLLWFGELLFREYYMDVWGKGTTVTVSS VL: not shown	binds
15.0.c912 (antibody, V domains shown) VH: QVQLQESGPGLVKPSQTLSLTCTVSGGSISSGGYYWNWVRQHPGKGLEWIGYISYSGSTFYSGSTYYNPSLKSRITISLDTSKNQFSLNLSSVTAADTAVYYCARDRGDPGGYYNYGMDVWGQGTTVTVSS VL: QSVLTQPPSASGTPGQRVTISCSGSSSNIGSHYVYWYQQLSGTAPKLLIYRNNERPSGVPDRFSGSKSGTSASLAISGLRSEDEADYYCATWDDSQRVFGGGTKLTVL	binds
15.0.c942 (antibody, V domains shown) VH: EVQLVESGGGVVRPGGSLRLTCAASGFIFENYGMSWVRQAPGKGLEWVSALNWNGVNTYYSDSVKGRFTISRDNAKNSLYLQMNSLSAEDTAFYYCAVHYYDSSGIYYLDDWGQGTLVTVSS VL: QSVLTQPPSVSAAPGQKVSISCSGSSSNIGKNYVYWYQHVPGAAPKLLIYENDKRPSGIPDRFSGSKSGTSATLDITGLQTGDEAEYYCATWQSGLSAHVVFGGGTKLTVL	binds
5.6.c3010 (antibody, V domains shown) VH: EVQLVESGGGLVQPGGSLRLSCAASGLTVSSNYMNWVRQAPGKGLEWVSVIYSGGRTYYADSVKGRFTISRDISKNTVYLEMNSLRADDTAVYYCARIYFFYNGMDVWGQGTTVTVSP VL: EILLTQSPGTLSLSPGERATLSCRASQSVSSNYLAWFQQKPGQAPRLLIYGASSRATGIPDRFSGSGSGTDFTLTISRLEPEDFALYYCQQYGSSPPWTFGQGTKVEMK	binds
5.6.c3387 (antibody, V domains shown) VH: QLQLQESGPRLVKPSETLSLTCTVSGGSINRNSYYWGWIRQPPGKGLEWIGTIYYSGSPYYNPSLKSRVTISVDTSKNQFSLKLDSVTAADTALYFCASLWGWNDVGWFDSWGQGTLVTVSS VL: EIVLTQSPGTLSLSPGERATLSCRASQSVSSGYLAWYQQKPGQAPRLLIYGASIRAAGIPDRFSGSGSGTDFTLTISRLEPEDFAVYFCQQYGTSPLTFGPGTTVDIK	binds
15.0.c778 (antibody, V domains shown) VH: QVQLHESGPGVVKVSETLSLTCTLSGGSINGNSWSWIRQTAGKGLEWIGRVYTSGSPNYNPSLKSRLTMSIVTSKNQFSLTLRSVTAADTAIYYCARDFVVIDPTRVVDDYDAFDVWGRGTVVTVSS VL: DIQLTQSPSILSASVGDRVTITCRASQSVSRYLAWYQQKPGNAPKLLIYKVSTLQSGVPSRFSGSASGTEFTLTINSLQPDDFATYYCHQYNGYLYTFGQGTKVDVK	binds
15.0.c865 (antibody, V domains shown) VH: EVQLVESGGSVVRPGGSLRLSCAASVFTFENYGMSWVRQTPGKGLEWVSSINWNGANTGYADSVKGRFTVSRDNAKNSLYLQMNSLRAEDTALYYCARHRYDSSGQWYFDYWGQGTLVTVSS VL: SYELTQPPSVSVSPGQTARITCSGDALPKKYAYWYQQKPGQAPVLVIYEDSKRPSGIPERFSGSRSGTMATLTISGAQVADEADYYCYSPDSSGNHRIFGTGTKVTVL	binds
9.1.c1410 (antibody, V domains shown) VH: EVQLVESGGGLVKPGGSLRLSCAASGFTFSSYSMNWVRQAPGKGLEWVSSISSSSSYIYYADSVKGRFTISRDNAKNSLYLQMNSLRAEDTAVYYCARDLSEYQLLLSYFDYWGQGTLVTVSS VL: not shown	binds
15.0.c835 (antibody, V domains shown) VH: not shown VL: DIQLTQSPSFLSASVGDRVTITCRASQGISSYLAWYQQKPGKAPKLLIYAASTLQSGVPSRFSGSGSGTEFTLTISSLQPEDFATYYCQQLNSYGYTFGQGTKLEIK	binds
5.6.c2647 (antibody, V domains shown) VH: QDQLVQSGAEVKKPGASVKVSCKASGYSFTGHYIHWVRRAPGRGLEWMGWINPDSGGTNYAQKFQGWVSMTRDTSISTAYMELSSLKSDDTAVYYCARGITMICDLWGQGTQVTVSS VL: not shown	binds

Reference: article PMC6908968 (Cell, 2019)
